Measurements published in US20220195068A1 (TENEOBIO, published 2022).
Where a chain is given by its changes, count along the chain named.

B1: 346181xCD3 monoparatopic PSMAxCD3 bispecific antibody (bispecific antibody, human IgG4 S228P, kappa, F234A L235A)
heavy 1: QLQLQESGPGLVKPSETLSLTCTVSGGSISSSNYFWGWIRQSPGKGLEWIGSIDYSGYTYYNPSLKSRVTISVDTSKNQFSLKLSSVTAADTAVYNCARHKAATADFDYRGQGTLVTVSSESKYGPPCPPCPAPEAAGGPSVFLFPPKPKDTLMISRTPEVTCVVVDVSQEDPEVQFNWYVDGVEVHNAKTKPREEQFNSTYRVVSVLTVLHQDWLNGKEYKCKVSNKGLPSSIEKTISKAKGQPREPQVYTLPPSQEEMTKNQVSLSCAVKGFYPSDIAVEWESNGQPENNYKTTPPVLDSDGSFFLVSRLTVDKSRWQEGNVFSCSVMHEALHNHYTQKSLSLSLGK
heavy 2: EVQLVESGGGLVQPGRSLRLSCAASGFTFDDYAMHWVRQAPGKGLEWVSGISWNSGSIGYADSVKGRFTISRDNAKNSLYLQMNSLRAEDTALYYCAKDSRGYGDYRLGGAYWGQGTLVTVSSASTKGPSVFPLAPCSRSTSESTAALGCLVKDYFPEPVTVSWNSGALTSGVHTFPAVLQSSGLYSLSSVVTVPSSSLGTKTYTCNVDHKPSNTKVDKRVESKYGPPCPPCPAPEAAGGPSVFLFPPKPKDTLMISRTPEVTCVVVDVSQEDPEVQFNWYVDGVEVHNAKTKPREEQFNSTYRVVSVLTVLHQDWLNGKEYKCKVSNKGLPSSIEKTISKAKGQPREPQVYTLPPSQEEMTKNQVSLWCLVKGFYPSDIAVEWESNGQPENNYKTTPPVLDSDGSFFLYSRLTVDKSRWQEGNVFSCSVMHEALHNHYTQKSLSLSLGK
light: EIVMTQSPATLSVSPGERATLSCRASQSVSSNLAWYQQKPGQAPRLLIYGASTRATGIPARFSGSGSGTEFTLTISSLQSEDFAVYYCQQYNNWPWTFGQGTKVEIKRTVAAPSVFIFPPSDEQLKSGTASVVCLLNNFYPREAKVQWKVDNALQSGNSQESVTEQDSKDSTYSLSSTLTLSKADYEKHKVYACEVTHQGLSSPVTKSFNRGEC
notes: three-chain antibody-like molecule; also called monoparatopic molecule
B2: anti-PSMA heavy chain antibody clone ID 325748 (antibody, V domains shown)
VH: QVQLVESGGGVVQPGRSLRLSCAASGFSFSSYGMHWVRQAPGKGLEGVAVIWYDGSNRYYADSVKGRFTISRDNSKNTLYLQMNSLRAEDTAVYYCAREPRIGYYYESSGYYSLDYRGQGTLVTVSS
notes: heavy chain-only antibody (UniAb), no light chain
B3: anti-PSMA heavy chain antibody clone ID 325932 (antibody, V domains shown)
VH: B2 VH
notes: as for B2
B4: anti-PSMA heavy chain antibody clone ID 345421 (antibody, V domains shown)
VH: B2 VH with G8V
notes: as for B2
B5: anti-PSMA heavy chain antibody clone ID 345447 (antibody, V domains shown)
VH: B2 VH with W52S
notes: as for B2
B6: anti-PSMA heavy chain antibody clone ID 345443 (antibody, V domains shown)
VH: B2 VH with Y80F
notes: as for B2
B7: anti-PSMA heavy chain antibody clone ID 345490 (antibody, V domains shown)
VH: B2 VH with V11L, Q13K, R16G
notes: as for B2
B8: anti-PSMA heavy chain antibody clone ID 345436 (antibody, V domains shown)
VH: B2 VH with S31R, R58K
notes: as for B2
B9: anti-PSMA heavy chain antibody clone ID 325940 (antibody, V domains shown)
VH: B2 VH with S28I, S30R, L45P, G47W, R58K
notes: as for B2
B10: anti-PSMA heavy chain antibody clone ID 345497 (antibody, V domains shown)
VH: B2 VH with S31R
notes: heavy chain-only antibody (UniAb), no light chain; also called HCAb 345497
B11: anti-PSMA heavy chain antibody clone ID 345485 (antibody, V domains shown)
VH: B2 VH with S30R, G47W, R58K, L79M
notes: as for B2
B12: anti-PSMA heavy chain antibody clone ID 325742 (antibody, V domains shown)
VH: B2 VH with G47W, R58K, N74Y, Y112D
notes: as for B2
B13: anti-PSMA heavy chain antibody clone ID 325867 (antibody, V domains shown)
VH: B2 VH with S30R, G47W, R58K, N74Y, Y112D
notes: heavy chain-only antibody (UniAb), no light chain; also called Antibody 1
B14: anti-PSMA heavy chain antibody clone ID 345508 (antibody, V domains shown)
VH: B2 VH with L45P, G47W
notes: as for B2
B15: anti-PSMA heavy chain antibody clone ID 345493 (antibody, V domains shown)
VH: B2 VH with S31R, G47W
notes: as for B2
B16: anti-PSMA heavy chain antibody clone ID 326087 (antibody, V domains shown)
VH: B2 VH with S28I, S30R, L45P, G47W, R58K, E107D, Y112D
notes: as for B2
B17: anti-PSMA heavy chain antibody clone ID 326116 (antibody, V domains shown)
VH: B2 VH with S31R, W52S, R58K, N74Y, E107D, Y112D
notes: as for B2
B18: anti-PSMA heavy chain antibody clone ID 325836 (antibody, V domains shown)
VH: B2 VH with S30R, G47W, R58K, N74Y, E107D, Y112D
notes: as for B2
B19: anti-PSMA heavy chain antibody clone ID 326029 (antibody, V domains shown)
VH: B2 VH with S31R, G47W, W52S, R58K, I102V, S108T
notes: as for B2
B20: anti-PSMA heavy chain antibody clone ID 345463 (antibody, V domains shown)
VH: B2 VH with S28I, S30R, L45P, G47W, R58K
notes: as for B2
B21: anti-PSMA heavy chain antibody clone ID 345509 (antibody, V domains shown)
VH: B2 VH with V11L, R16G, R58K, L79M
notes: as for B2
B22: anti-PSMA heavy chain antibody clone ID 326027 (antibody, V domains shown)
VH: B2 VH with S30R, G47W, R58K, E107D, Y112D
notes: as for B2
B23: anti-PSMA heavy chain antibody clone ID 345510 (antibody, V domains shown)
VH: B2 VH with G47W, R58K, L79M
notes: as for B2
B24: anti-PSMA heavy chain antibody clone ID 326028 (antibody, V domains shown)
VH: B2 VH with S30R, G47W, W52S, R58K, N74Y, E107D, Y112D
notes: as for B2
B25: anti-PSMA heavy chain antibody clone ID 326084 (antibody, V domains shown)
VH: B2 VH with E107D
notes: as for B2
B26: anti-PSMA heavy chain antibody clone ID 345461 (antibody, V domains shown)
VH: B2 VH with S30T
notes: as for B2
B27: anti-PSMA heavy chain antibody clone ID 345482 (antibody, V domains shown)
VH: B2 VH with N74S
notes: as for B2
B28: anti-PSMA heavy chain antibody clone ID 345480 (antibody, V domains shown)
VH: B2 VH with G47W
notes: as for B2
B29: anti-PSMA heavy chain antibody clone ID 345505 (antibody, V domains shown)
VH: B2 VH with S28T, S30I
notes: as for B2
B30: anti-PSMA heavy chain antibody clone ID 345438 (antibody, V domains shown)
VH: B2 VH with L45P, G47W, R58K
notes: as for B2
B31: anti-PSMA heavy chain antibody clone ID 345444 (antibody, V domains shown)
VH: B2 VH with S28T
notes: as for B2
B32: anti-PSMA heavy chain antibody clone ID 346172 (antibody, V domains shown)
VH: QLQLQESGPGLVKPSETLSLTCTVSGGSISSSSYYWGWIRQPPGKGLEWIGSIDYSGYTYYNPSLKSRVTISVDTSKNQFSLKLSSVTAADTAVYNCARHKAATADFDYRGQGTLVTVSS
notes: as for B2
B33: anti-PSMA heavy chain antibody clone ID 325920 (antibody, V domains shown)
VH: B32 VH with K66Q
notes: heavy chain-only antibody (UniAb), no light chain; also called Antibody 2
B34: anti-PSMA heavy chain antibody clone ID 346181 (antibody, V domains shown)
VH: B32 VH with S33N, Y35F, P42S
notes: heavy chain-only antibody (UniAb), no light chain; also called HCAb 346181
B35: anti-PSMA heavy chain antibody clone ID 346165 (antibody, V domains shown)
VH: B32 VH with I53V, K66Q
notes: as for B2
B36: anti-PSMA heavy chain antibody clone ID 326109 (antibody, V domains shown)
VH: B32 VH with S32N, P42S, I50L, D54Y, Y55D, Y58S, Y60H, T70I, V73G, N96Y
notes: as for B2

Molecular target: T1, human PSMA (Prostate Specific Membrane Antigen, Glutamate Carboxypeptidase II) on cells (human, UniProt Q04609 1-750)
T1 construct: whole, on cells; the same molecule is used for all four PSMA positive cell lines; the cell line is named under assay; also called cell surface expressed PSMA; FOLH1
T1 sequence (Q04609 whole entry): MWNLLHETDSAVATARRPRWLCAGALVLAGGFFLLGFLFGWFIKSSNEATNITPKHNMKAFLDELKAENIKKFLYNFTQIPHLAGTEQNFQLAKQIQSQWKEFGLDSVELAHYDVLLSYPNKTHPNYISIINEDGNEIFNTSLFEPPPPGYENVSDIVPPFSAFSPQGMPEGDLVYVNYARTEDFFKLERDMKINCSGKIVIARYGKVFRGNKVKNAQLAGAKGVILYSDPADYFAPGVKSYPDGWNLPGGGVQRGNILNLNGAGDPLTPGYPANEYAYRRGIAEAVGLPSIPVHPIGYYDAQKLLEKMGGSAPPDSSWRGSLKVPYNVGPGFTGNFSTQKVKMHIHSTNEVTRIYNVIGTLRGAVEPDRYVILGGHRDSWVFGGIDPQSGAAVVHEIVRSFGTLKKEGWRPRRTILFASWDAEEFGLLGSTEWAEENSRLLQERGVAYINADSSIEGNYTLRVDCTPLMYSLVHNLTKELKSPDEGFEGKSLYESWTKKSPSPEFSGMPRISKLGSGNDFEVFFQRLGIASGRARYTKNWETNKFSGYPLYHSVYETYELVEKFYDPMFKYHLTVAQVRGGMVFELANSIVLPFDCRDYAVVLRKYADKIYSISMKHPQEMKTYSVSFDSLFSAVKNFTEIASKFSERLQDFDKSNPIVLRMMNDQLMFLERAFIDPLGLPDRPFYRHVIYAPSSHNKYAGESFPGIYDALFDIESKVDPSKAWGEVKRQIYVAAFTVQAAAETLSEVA
Assay: flow cytometry cell binding, 22Rv1 cells

| Binder | EC50 [nM] |
| --- | --- |
| B1 | 58 |

Molecular target: T1, human PSMA (Prostate Specific Membrane …)
Assay: flow cytometry cell binding, LNCAP cells

| Binder | EC50 [nM] |
| --- | --- |
| B1 | 17 |

Molecular target: T1, human PSMA (Prostate Specific Membrane …)
Assay: cell-based or functional assay

| Binder | IFNγ EC50, 22Rv1 cells [nM] | IFNγ EC50, LNCAP cells [nM] | IFNγ EC50, MDA-PCa-2b cells [nM] | IFNγ EC50, PC3-PSMA cells [nM] | IL-2 EC50, LNCAP cells [nM] | IL-2 EC50, MDA-PCa-2b cells [nM] | IL-2 EC50, PC3-PSMA cells [nM] | Kill EC50, 22Rv1 cells, resting T-cells [nM] | Kill EC50, LNCAP cells, resting T-cells [nM] | Kill EC50, MDA-PCa-2b cells, resting T-cells [nM] |
| --- | --- | --- | --- | --- | --- | --- | --- | --- | --- | --- |
| B1 | 174 | 63 | 116 | 10.1 | 575 | 38.5 | 4.1 | 52.8 | 14.6 | 23.6 |

Same assay, conditions: not given

| Binder | Kill EC50, PC3-PSMA cells, resting T-cells [nM] |
| --- | --- |
| B1 | 3.7 |

Molecular target: T1, human PSMA (Prostate Specific Membrane …)
Assay: flow cytometry on LNCaP cells
Protocol: Briefly, 50,000 target cells were stained with a dilution series of purified UniAbs™ for 30 minutes at 4° C. Following incubation, the cells were washed twice with flow cytometry buffer (1X PBS, 1% BSA, 0.1% NaN₃) and stained with goat F(ab')₂ anti-human IgG conjugated to R-phycoerythrin (PE) (Southern Biotech, cat. #2042-09) to detect cell-bound antibodies. After a 20-minute incubation at 4° C., the cells were washed twice with flow cytometry buffer and the mean fluorescence intensity (MFI) was measured by flow cytometry. The MFI of cells stained with secondary antibody alone were used for determination of background signal and binding of each antibody was converted to fold over background. Binding to cynomolgus PSMA positive cells was determined using the same protocol with the following modifications: the target cells were from Freestyle 293-F cells (ThermoFisher R79007) transiently transfected to express the extracellular domain of cynomolgus PSMA. In some experiments EC50 values were calculated using GraphPad Prism 7.

| Binder | fold over the background MFI signal [fold over background] |
| --- | --- |
| B2 | 193 |
| B3 | 64 |
| B4 | 22 |
| B5 | 14 |
| B6 | 84 |
| B7 | 80 |
| B8 | 87 |
| B9 | 169 |
| B10 | 112 |
| B11 | 71 |
| B12 | 200 |
| B13 | 210 |
| B14 | 55 |
| B15 | 101 |
| B16 | 129 |
| B17 | 38 |
| B18 | 163 |
| B19 | 109 |

| Binder | fold over the background MFI signal [fold over background] |
| --- | --- |
| B20 | 68 |
| B21 | 37 |
| B22 | 138 |
| B23 | 13 |
| B24 | 117 |
| B25 | 125 |
| B26 | 102 |
| B27 | 80 |
| B28 | 47 |
| B29 | 59 |
| B30 | 13 |
| B31 | 23 |
| B32 | 216 |
| B33 | 282 |
| B34 | 264 |
| B35 | 243 |
| B36 | 25 |

Molecular target: T1, human PSMA (Prostate Specific Membrane …)
Assay: flow cytometry cell binding, PC3-PSMA cells

| Binder | EC50 [nM] |
| --- | --- |
| B1 | 30 |

Molecular target: T1, human PSMA (Prostate Specific Membrane …)
Assay: flow cytometry cell binding, MDA-PCa-2b cells

| Binder | EC50 [nM] |
| --- | --- |
| B1 | 28 |
